Tests used:
Test in all cases: cell-based or functional assay
[1] = biological target: S protein of SARS-CoV-2 Omicron BA.2.75 (SARS-CoV-2 BA.2.75)
[2] = biological target: S protein of SARS-CoV-2 Omicron BF.7 (SARS-CoV-2 BF.7)
[3] = biological target: S protein of SARS-CoV-2 Omicron BA.2 (SARS-CoV-2 BA.2)
[4] = biological target: S protein of SARS-CoV-2 Omicron BA.2.2 (SARS-CoV-2 BA.2.2)
[5] = biological target: S protein of SARS-CoV-2 Omicron BQ.1 (SARS-CoV-2 BQ.1)
[6] = biological target: S protein of SARS-CoV-2 Delta (B.1.617.2) (SARS-CoV-2 Delta (B.1.617.2))
[7] = biological target: S protein of SARS-CoV-2 Beta (B.1.351) (SARS-CoV-2 Beta (B.1.351))
[8] = biological target: S protein of SARS-CoV-2 Omicron BA.1 (SARS-CoV-2 BA.1)
[9] = biological target: S protein of SARS-CoV-2 Gamma (P.1) (SARS-CoV-2 Gamma (P.1))
[10] = biological target: S protein of SARS-CoV-2 Omicron BA.5 (SARS-CoV-2 BA.5)
[11] = biological target: S protein of SARS-CoV-2 Omicron XBB (SARS-CoV-2 XBB)
[12] = biological target: S protein of SARS-CoV-2 Omicron BA.2.12.1 (SARS-CoV-2 BA.2.12.1)
[13] = biological target: S protein of SARS-CoV-2 Omicron BA.2.9 (SARS-CoV-2 BA.2.9)
[14] = biological target: S protein of SARS-CoV-2 Lambda (SARS-CoV-2 Lambda)
[15] = biological target: S protein of SARS-CoV-2 Omicron BA.3 (SARS-CoV-2 BA.3)
[16] = biological target: S protein of SARS-CoV-2 Omicron BA.4.6 (SARS-CoV-2 BA.4.6)
[17] = biological target: S protein of SARS-CoV-2 Alpha (B.1.1.7) (SARS-CoV-2 Alpha (B.1.1.7))

## AL6E protein (ACE2-linker-EK1 fusion protein with (GGGGS)6 linker)
[1]
  IC50, inhibition of pseudovirus infection (Caco-2, luciferase): 1400 pM
[2]
  IC50, inhibition of pseudovirus infection (Caco-2, luciferase): 1010 pM
[3]
  IC50, inhibition of pseudovirus infection (Caco-2, luciferase): 210 pM
[4]
  IC50, inhibition of pseudovirus infection (Caco-2, luciferase): 240 pM
[5]
  IC50, inhibition of pseudovirus infection (Caco-2, luciferase): 860 pM
[6]
  IC50, inhibition of pseudovirus infection (Caco-2, luciferase): 310 pM
[7]
  IC50, inhibition of pseudovirus infection (Caco-2, luciferase): 250 pM
[8]
  IC50, inhibition of pseudovirus infection (Caco-2, luciferase): 110 pM
[9]
  IC50, inhibition of pseudovirus infection (Caco-2, luciferase): 280 pM
[10]
  IC50, inhibition of pseudovirus infection (Caco-2, luciferase): 130 pM
[11]
  IC50, inhibition of pseudovirus infection (Caco-2, luciferase): 230 pM
[12]
  IC50, inhibition of pseudovirus infection (Caco-2, luciferase): 170 pM
[13]
  IC50, inhibition of pseudovirus infection (Caco-2, luciferase): 90 pM
[14]
  IC50, inhibition of pseudovirus infection (Caco-2, luciferase): 70 pM
[15]
  IC50, inhibition of pseudovirus infection (Caco-2, luciferase): 270 pM
[16]
  IC50, inhibition of pseudovirus infection (Caco-2, luciferase): 1960 pM
[17]
  IC50, inhibition of pseudovirus infection (Caco-2, luciferase): 250 pM

## AL7E protein (ACE2-linker-EK1 fusion protein with (GGGGS)7 linker)
[1]
  IC50, inhibition of pseudovirus infection (Caco-2, luciferase): 1040 pM
[2]
  IC50, inhibition of pseudovirus infection (Caco-2, luciferase): 930 pM
[3]
  IC50, inhibition of pseudovirus infection (Caco-2, luciferase): 120 pM
[4]
  IC50, inhibition of pseudovirus infection (Caco-2, luciferase): 280 pM
[5]
  IC50, inhibition of pseudovirus infection (Caco-2, luciferase): 1140 pM
[6]
  IC50, inhibition of pseudovirus infection (Caco-2, luciferase): 310 pM
[7]
  IC50, inhibition of pseudovirus infection (Caco-2, luciferase): 240 pM
[8]
  IC50, inhibition of pseudovirus infection (Caco-2, luciferase): 140 pM
[9]
  IC50, inhibition of pseudovirus infection (Caco-2, luciferase): 250 pM
[10]
  IC50, inhibition of pseudovirus infection (Caco-2, luciferase): 310 pM
[11]
  IC50, inhibition of pseudovirus infection (Caco-2, luciferase): 940 pM
[12]
  IC50, inhibition of pseudovirus infection (Caco-2, luciferase): 230 pM
[13]
  IC50, inhibition of pseudovirus infection (Caco-2, luciferase): 210 pM
[14]
  IC50, inhibition of pseudovirus infection (Caco-2, luciferase): 270 pM
[15]
  IC50, inhibition of pseudovirus infection (Caco-2, luciferase): 110 pM
[16]
  IC50, inhibition of pseudovirus infection (Caco-2, luciferase): 560 pM
[17]
  IC50, inhibition of pseudovirus infection (Caco-2, luciferase): 210 pM

Reference: patent EP4782466A1, “FUSION PROTEIN FOR INACTIVATING CORONAVIRUS AND USE THEREOF” (priority 2023, dated 2025)
